Test results as given in the supplement of paper PMC10567573.

B1: SPACA3 (parent)
chain: FTSGFNAAALDYEADGSTNNGIFQ

Variants of: B1
Experiment: protein stability index of a GFP-peptide fusion (GPS, HEK-293T) (PSI 1-6); higher = more stable
Settings: c terminus: a fixed tail appended
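Further: lentivirally expressed fusions sorted by FACS into six bins by GFP to DsRed ratio, PSI derived from sequencing read proportions per bin multiplied by bin number.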

In order of falling protein stability index:
1. FTSGFNAAALDYWADGSTNNGIFQ [E13W]  3.11
2. FTSGFNAAALDYEADGSKNNGIFQ [T18K]  2.78
3. FTSGFNAAALDYEAYGSTNNGIFQ [D15Y]  2.47
4. FTSGFNAAALDYFADGSTNNGIFQ [E13F]  2.46
5. FTSGFNAAALDYEAWGSTNNGIFQ [D15W]  2.46
6. FTSGFNAAALDYEAFGSTNNGIFQ [D15F]  2.42
7. FTSGFNAAALDYEADGQTNNGIFQ [S17Q]  2.35
8. FTSGFNAAALDYEADNSTNNGIFQ [G16N]  2.33
9. FTSGFNAAALDYDADGSTNNGIFQ [E13D]  2.32
10. FTSGFNAAALDYEADGHTNNGIFQ [S17H]  2.31
11. FTSGFNAAALDYEADDSTNNGIFQ [G16D]  2.31
12. FTSGFNAAALDYEADESTNNGIFQ [G16E]  2.31
13. FTSGFNAAALDYEADGSGNNGIFQ [T18G]  2.31
14. FTSGFNAAALDYEADASTNNGIFQ [G16A]  2.3
15. FTSGFNAAALDYEADGSENNGIFQ [T18E]  2.27
16. FTSGFNAAALDYEACGSTNNGIFQ [D15C]  2.27
17. FTSGFNAAALDYEADKSTNNGIFQ [G16K]  2.26
18. FTSGFNAAALDYEADTSTNNGIFQ [G16T]  2.26
19. FTSGFNAAALDYEAEGSTNNGIFQ [D15E]  2.26
20. FTSGFNAAALDYHADGSTNNGIFQ [E13H]  2.24
21. FTSGFNAAALDYEADGDTNNGIFQ [S17D]  2.21
22. FTSGFNAAALDYEADGNTNNGIFQ [S17N]  2.21
23. FTSGFNAAALDYTADGSTNNGIFQ [E13T]  2.21
24. FTSGFNAAALDYEADGTTNNGIFQ [S17T]  2.19
25. FTSGFNAAALDYEADHSTNNGIFQ [G16H]  2.19
26. FTSGFNAAALDYEADGSINNGIFQ [T18I]  2.14
27. FTSGFNAAALDYEADGETNNGIFQ [S17E]  2.13
28. FTSGFNAAALDYEAIGSTNNGIFQ [D15I]  2.12
29. FTSGFNAAALDYEAAGSTNNGIFQ [D15A]  2.11
30. FTSGFNAAALDYEADGWTNNGIFQ [S17W]  2.1
31. FTSGFNAAALDYEADGATNNGIFQ [S17A]  2.1
32. FTSGFNAAALDYNADGSTNNGIFQ [E13N]  2.09
33. FTSGFNAAALDYKADGSTNNGIFQ [E13K]  2.08
34. FTSGFNAAALDYVADGSTNNGIFQ [E13V]  2.08
35. FTSGFNAAALDYEADGSSNNGIFQ [T18S]  2.08
36. FTSGFNAAALDYEADGSLNNGIFQ [T18L]  2.07
37. FTSGFNAAALDYEADGVTNNGIFQ [S17V]  2.06
38. FTSGFNAAALDYEADGSDNNGIFQ [T18D]  2.06
39. FTSGFNAAALDYEADGPTNNGIFQ [S17P]  2.05
40. FTSGFNAAALDYEADGGTNNGIFQ [S17G]  2.05
41. FTSGFNAAALDYEADGSRNNGIFQ [T18R]  2.02
42. FTSGFNAAALDYEADMSTNNGIFQ [G16M]  2
43. FTSGFNAAALDYEADGSCNNGIFQ [T18C]  2
44. FTSGFNAAALDYEASGSTNNGIFQ [D15S]  2
45. FTSGFNAAALDYEATGSTNNGIFQ [D15T]  1.98
46. FTSGFNAAALDYEADPSTNNGIFQ [G16P]  1.97
47. FTSGFNAAALDYEADGITNNGIFQ [S17I]  1.96
48. FTSGFNAAALDYEADFSTNNGIFQ [G16F]  1.96
49. FTSGFNAAALDYEARGSTNNGIFQ [D15R]  1.96
50. FTSGFNAAALDYEADGRTNNGIFQ [S17R]  1.95
51. FTSGFNAAALDYEADGSMNNGIFQ [T18M]  1.95
52. FTSGFNAAALDYEADGCTNNGIFQ [S17C]  1.94
53. FTSGFNAAALDYEADGYTNNGIFQ [S17Y]  1.93
54. FTSGFNAAALDYEADISTNNGIFQ [G16I]  1.92
55. FTSGFNAAALDYEADQSTNNGIFQ [G16Q]  1.9
56. FTSGFNAAALDYEADGKTNNGIFQ [S17K]  1.87
57. FTSGFNAAALDYCADGSTNNGIFQ [E13C]  1.87
58. FTSGFNAAALDYEADRSTNNGIFQ [G16R]  1.87
59. FTSGFNAAALDYEADGSANNGIFQ [T18A]  1.87
60. FTSGFNAAALDYEANGSTNNGIFQ [D15N]  1.86
61. FTSGFNAAALDYEADSSTNNGIFQ [G16S]  1.83
62. FTSGFNAAALDYEADGSPNNGIFQ [T18P]  1.83
63. FTSGFNAAALDYEADGSHNNGIFQ [T18H]  1.83
64. FTSGFNAAALDYMADGSTNNGIFQ [E13M]  1.82
65. FTSGFNAAALDYEADGSQNNGIFQ [T18Q]  1.82
66. FTSGFNAAALDYSADGSTNNGIFQ [E13S]  1.78
67. FTSGFNAAALDYEADVSTNNGIFQ [G16V]  1.78
68. FTSGFNAAALDYEADGSFNNGIFQ [T18F]  1.78
69. FTSGFNAAALDYAADGSTNNGIFQ [E13A]  1.76
70. FTSGFNAAALDYEADGFTNNGIFQ [S17F]  1.74
71. FTSGFNAAALDYEAHGSTNNGIFQ [D15H]  1.74
72. FTSGFNAAALDYLADGSTNNGIFQ [E13L]  1.72
73. FTSGFNAAALDYEADLSTNNGIFQ [G16L]  1.72
74. FTSGFNAAALDYEADGLTNNGIFQ [S17L]  1.71
75. FTSGFNAAALDYEADGSNNNGIFQ [T18N]  1.7
76. FTSGFNAAALDYEAGGSTNNGIFQ [D15G]  1.68
77. FTSGFNAAALDYRADGSTNNGIFQ [E13R]  1.66
78. FTSGFNAAALDYEADYSTNNGIFQ [G16Y]  1.66
79. FTSGFNAAALDYEAQGSTNNGIFQ [D15Q]  1.66
80. FTSGFNAAALDYEAKGSTNNGIFQ [D15K]  1.65
81. FTSGFNAAALDYEAPGSTNNGIFQ [D15P]  1.64
82. FTSGFNAAALDYEAMGSTNNGIFQ [D15M]  1.63
83. FTSGFNAAALDYYADGSTNNGIFQ [E13Y]  1.61
84. FTSGFNAAALDYEADGSWNNGIFQ [T18W]  1.59
85. FTSGFNAAALDYEALGSTNNGIFQ [D15L]  1.58
86. FTSGFNAAALDYQADGSTNNGIFQ [E13Q]  1.56
87. FTSGFNAAALDYPADGSTNNGIFQ [E13P]  1.55
88. FTSGFNAAALDYEADGSVNNGIFQ [T18V]  1.5
89. FTSGFNAAALDYEADCSTNNGIFQ [G16C]  1.49
90. FTSGFNAAALDYEADGMTNNGIFQ [S17M]  1.48
91. FTSGFNAAALDYGADGSTNNGIFQ [E13G]  1.44
92. FTSGFNAAALDYEAVGSTNNGIFQ [D15V]  1.43
93. FTSGFNAAALDYIADGSTNNGIFQ [E13I]  1.36
94. FTSGFNAAALDYEADWSTNNGIFQ [G16W]  1.15
